# Assay results: patent publication US20160297884A1 (Pfizer, published 2016)
# Changes are numbered by the printed parent chain.
# T1: Human BCMA (human, UniProt Q02223 1-54, limits assumed)
# T1 construct: Soluble analyte in SPR; construct not described; also called huBCMA; B-cell maturation antigen
# T1 sequence (looked up): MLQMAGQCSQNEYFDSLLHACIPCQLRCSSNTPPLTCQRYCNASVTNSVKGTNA
# B1: L3.PY/L1.AH/H3.TAQ (antibody, V domains shown)
# VH: EVQLLESGGGLVQPGGSLRLSCAASGFTFGSYAMTWVRQAPGKGLEWVSAISGSGGNTFYADSVKGRFTISRDNSKNTLYLQMNSLRAEDTAVYYCTRVSPIAAQMDYWGQGTLVTVSS
# VL: EIVLTQSPGTLSLSPGERATLSCRASQSVSAHYLAWYQQKPGQAPRLLIYGASSRATGIPDRFSGSGSGTDFTLTISRLEPEDFAVYYCQHYPYPPSFTFGQGTKVEIK
# notes: IgG
# B2: L3.PY/L3.KY/H2.YQ (antibody, V domains shown)
# VH: B1 VH with G53Y, S54Q, T97A, A104S, Q105G
# VL: B1 VL with A31S, H32S, Q90K, H91Y
# notes: IgG
# B3: L3.PY/L3.KY/H3.TAQ (antibody, V domains shown)
# VH: B1 VH
# VL: B1 VL with A31S, H32S, Q90K, H91Y
# notes: IgG
# B4: L3.PY/L3.KF/H3.TAQ (antibody, V domains shown)
# VH: B1 VH
# VL: B1 VL with A31S, H32S, Q90K, H91F
# notes: IgG
# B5: L3.PY/L3.KY/H2.HA (antibody, V domains shown)
# VH: B1 VH with G53H, S54A, T97A, A104S, Q105G
# VL: B1 VL with A31S, H32S, Q90K, H91Y
# notes: IgG
# B6: L3.PY/L1.FF/H2.LT (antibody, V domains shown)
# VH: B1 VH with G53L, S54T, T97A, A104S, Q105G
# VL: B1 VL with A31S, H32F, Y33F
# notes: IgG
# B7: L3.PY/L1.FF/H2.HA (antibody, V domains shown)
# VH: B1 VH with G53H, S54A, T97A, A104S, Q105G
# VL: B1 VL with A31S, H32F, Y33F
# notes: IgG
# B8: L3.PY/L1.PH/H3.TAQ (antibody, V domains shown)
# VH: B1 VH
# VL: B1 VL with A31P
# notes: IgG
# B9: L3.PY/L1.FF/H3.AQ (antibody, V domains shown)
# VH: B1 VH with T97A
# VL: B1 VL with A31S, H32F, Y33F
# notes: IgG
# B10: L3.PY/L3.KY/H2.DY (antibody, V domains shown)
# VH: B1 VH with S52D, G53Y, T97A, A104S, Q105G
# VL: B1 VL with A31S, H32S, Q90K, H91Y
# notes: IgG
# B11: L3.PY/L1.PH/H3.AQ (antibody, V domains shown)
# VH: B1 VH with T97A
# VL: B1 VL with A31P
# notes: IgG
# B12: L3.PY/L3.KF/H3.YA (antibody, V domains shown)
# VH: B1 VH with T97A, A103Y, Q105G
# VL: B1 VL with A31S, H32S, Q90K, H91F
# notes: IgG
# B13: L3.PY/L1.PH/H2.QR (antibody, V domains shown)
# VH: B1 VH with S63Q, V64R, T97A, A104S, Q105G
# VL: B1 VL with A31P
# notes: IgG
# B14: L3.PY/L3.KF/H3.AQ (antibody, V domains shown)
# VH: B1 VH with T97A
# VL: B1 VL with A31S, H32S, Q90K, H91F
# notes: IgG
# B15: L3.PY/L1.PH/H2.HA (antibody, V domains shown)
# VH: B1 VH with G53H, S54A, T97A, A104S, Q105G
# VL: B1 VL with A31P
# notes: IgG
# B16: L3.PY/L3.KF/H2.LT (antibody, V domains shown)
# VH: B1 VH with G53L, S54T, T97A, A104S, Q105G
# VL: B1 VL with A31S, H32S, Q90K, H91F
# notes: IgG
# B17: L3.PY/L3.KY/H2.LT (antibody, V domains shown)
# VH: B1 VH with G53L, S54T, T97A, A104S, Q105G
# VL: B1 VL with A31S, H32S, Q90K, H91Y
# notes: IgG
# B18: L3.PY/L3.KY/H2.QR (antibody, V domains shown)
# VH: B1 VH with S63Q, V64R, T97A, A104S, Q105G
# VL: B1 VL with A31S, H32S, Q90K, H91Y
# notes: IgG
# B19: L3.PY/L3.KF/H3.AE (antibody, V domains shown)
# VH: B1 VH with T97A, Q105E
# VL: B1 VL with A31S, H32S, Q90K, H91F
# notes: IgG
# B20: L3.PY/L1.FF/H3.TAQ (antibody, V domains shown)
# VH: B1 VH
# VL: B1 VL with A31S, H32F, Y33F
# notes: IgG
# B21: L3.PY/L1.FF/H3.YA (antibody, V domains shown)
# VH: B1 VH with T97A, A103Y, Q105G
# VL: B1 VL with A31S, H32F, Y33F
# notes: IgG
# B22: L3.PY/L3.KF/H2.DY (antibody, V domains shown)
# VH: B1 VH with S52D, G53Y, T97A, A104S, Q105G
# VL: B1 VL with A31S, H32S, Q90K, H91F
# notes: IgG
# B23: L3.PY/L3.KY/H2.QL (antibody, V domains shown)
# VH: B1 VH with S63Q, V64L, T97A, A104S, Q105G
# VL: B1 VL with A31S, H32S, Q90K, H91Y
# notes: IgG
# B24: L3.PY/L1.FF/H2.QR (antibody, V domains shown)
# VH: B1 VH with S63Q, V64R, T97A, A104S, Q105G
# VL: B1 VL with A31S, H32F, Y33F
# notes: IgG
# B25: L3.PY/L3.KF/H2.QL (antibody, V domains shown)
# VH: B1 VH with S63Q, V64L, T97A, A104S, Q105G
# VL: B1 VL with A31S, H32S, Q90K, H91F
# notes: IgG
# B26: L3.PY/L1.PH/H3.AE (antibody, V domains shown)
# VH: B1 VH with T97A, Q105E
# VL: B1 VL with A31P
# notes: IgG
# B27: L3.PY/L1.FF/H2.YQ (antibody, V domains shown)
# VH: B1 VH with G53Y, S54Q, T97A, A104S, Q105G
# VL: B1 VL with A31S, H32F, Y33F
# notes: IgG
# B28: L3.PY/L1.FF/H2.DY (antibody, V domains shown)
# VH: B1 VH with S52D, G53Y, T97A, A104S, Q105G
# VL: B1 VL with A31S, H32F, Y33F
# notes: IgG
# B29: L3.PY/L3.KF/H2.YQ (antibody, V domains shown)
# VH: B1 VH with G53Y, S54Q, T97A, A104S, Q105G
# VL: B1 VL with A31S, H32S, Q90K, H91F
# notes: IgG
# B30: L3.PY/L1.FF/H3.AE (antibody, V domains shown)
# VH: B1 VH with T97A, Q105E
# VL: B1 VL with A31S, H32F, Y33F
# notes: IgG
# B31: L3.PY/L1.FF/H2.QL (antibody, V domains shown)
# VH: B1 VH with S63Q, V64L, T97A, A104S, Q105G
# VL: B1 VL with A31S, H32F, Y33F
# notes: IgG
# Biological target: T1, Human BCMA
# Experiment: SPR, IgG immobilised, 37 C
# Method: All experiments were performed on a Bio-Rad Proteon XPR36 surface Plasmon resonance biosensor (Bio-Rad, Hercules, Calif.). […] The analysis temperature for the immobilization was 25° C. and the running buffer was HBS-T+(10 mM HEPES, 150 mM NaCl, 0.05% Tween-20, pH 7.4). Channels were activated in the analyte (horizontal) direction by injecting a mixture of 1 mM ECD and 0.25 mM NHS for 3 minutes at a flow rate of 30 μL/min. IgGs were immobilized on the activated spots by injecting them in the ligand (vertical) direction at 20 μg/mL in 10 mM Acetate pH 4.5 buffer for 1.5 minutes at […]. The activated surfaces were blocked by injecting 1M ethanolamine, pH 8.5 in the analyte direction for 3 minutes at 30 μL/min.
# The analysis temperature for the BCMA binding analysis was 37° C. or 25° C. in a running buffer of HBS-T+, supplemented with 1 mg/mL BSA. A kinetic titration method was employed for the interaction analysis as described in Abdiche, et al. Human BCMA (huBCMA) or cynomolgus monkey BCMA (cyBCMA) analyte was injected in the analyte direction using a series of injections from low to high concentration. The concentrations used were 0.08 nM, 0.4 nM, 2 nM, 10 nM and 50 nM (a 5-membered series, with a 5-fold dilution factor and top concentration of 50 nM). The association time for a given analyte dilution was two minutes. Immediately after the 50 nM BCMA injection, dissociation was monitored for 2 hours.
# The sensorgrams were double-referenced and fit to a 1:1 Langmuir with mass transport kinetic titration model in BIAevaluation Software version 4.1.1 (GE Lifesciences, Piscataway, N.J.).
Binder,Kd,T ½,koff,kon
B1,0.37 nM,9.68 min,0.00119 s⁻¹,3.27e+06 M⁻¹ s⁻¹
B2,0.77 nM,7.02 min,0.00165 s⁻¹,2.14e+06 M⁻¹ s⁻¹
B3,0.23 nM,17.8 min,0.000649 s⁻¹,2.79e+06 M⁻¹ s⁻¹
B4,0.58 nM,7.12 min,0.00162 s⁻¹,2.82e+06 M⁻¹ s⁻¹
B5,0.49 nM,7.1 min,0.00163 s⁻¹,3.29e+06 M⁻¹ s⁻¹
B6,0.51 nM,6.92 min,0.00167 s⁻¹,3.3e+06 M⁻¹ s⁻¹
B7,0.63 nM,5.29 min,0.00219 s⁻¹,3.49e+06 M⁻¹ s⁻¹
B8,0.59 nM,5.43 min,0.00213 s⁻¹,3.58e+06 M⁻¹ s⁻¹
B9,0.46 nM,7.51 min,0.00154 s⁻¹,3.32e+06 M⁻¹ s⁻¹
B10,0.2 nM,18 min,0.000642 s⁻¹,3.19e+06 M⁻¹ s⁻¹
B11,0.52 nM,7.27 min,0.00159 s⁻¹,3.08e+06 M⁻¹ s⁻¹
B12,0.47 nM,7.85 min,0.00147 s⁻¹,3.12e+06 M⁻¹ s⁻¹
B13,0.64 nM,4.89 min,0.00236 s⁻¹,3.69e+06 M⁻¹ s⁻¹
B14,0.65 nM,5.09 min,0.00227 s⁻¹,3.48e+06 M⁻¹ s⁻¹
B15,0.49 nM,9.99 min,0.00116 s⁻¹,2.37e+06 M⁻¹ s⁻¹
B16,0.69 nM,6.05 min,0.00191 s⁻¹,2.75e+06 M⁻¹ s⁻¹

Binder,Kd,T ½,koff,kon
B17,0.31 nM,12.8 min,0.000906 s⁻¹,2.92e+06 M⁻¹ s⁻¹
B18,0.34 nM,11.7 min,0.00099 s⁻¹,2.95e+06 M⁻¹ s⁻¹
B19,0.51 nM,7.44 min,0.00155 s⁻¹,3.07e+06 M⁻¹ s⁻¹
B20,0.54 nM,6.12 min,0.00189 s⁻¹,3.52e+06 M⁻¹ s⁻¹
B21,0.51 nM,6.41 min,0.0018 s⁻¹,3.5e+06 M⁻¹ s⁻¹
B22,0.67 nM,6.35 min,0.00182 s⁻¹,2.74e+06 M⁻¹ s⁻¹
B23,0.57 nM,5.56 min,0.00208 s⁻¹,3.65e+06 M⁻¹ s⁻¹
B24,0.51 nM,6.54 min,0.00177 s⁻¹,3.47e+06 M⁻¹ s⁻¹
B25,0.6 nM,9.26 min,0.00125 s⁻¹,2.07e+06 M⁻¹ s⁻¹
B26,0.36 nM,8.61 min,0.00134 s⁻¹,3.68e+06 M⁻¹ s⁻¹
B27,0.46 nM,7.61 min,0.00152 s⁻¹,3.32e+06 M⁻¹ s⁻¹
B28,0.65 nM,4.27 min,0.00271 s⁻¹,4.14e+06 M⁻¹ s⁻¹
B29,1.14 nM,5.18 min,0.00223 s⁻¹,1.96e+06 M⁻¹ s⁻¹
B30,0.69 nM,4.39 min,0.00263 s⁻¹,3.82e+06 M⁻¹ s⁻¹
B31,0.4 nM,8.28 min,0.0014 s⁻¹,3.48e+06 M⁻¹ s⁻¹
